Our source for the stoichiometry N values is paper PMC12335825.

The experiment addresses MD39 HIV Env stabilized SOSIP trimer (MD39 HIV Env gp140) (HIV). The experiment in a line: SEC-MALS; immunogens after S200 Increase size-exclusion chromatography in TBS; DAWN HELEOS II and Optilab T-rEX.

The stoichiometry N is the number of molecules, sites or subunits per partner or assembly.

Consider “MD39 HIV Env stabilized SOSIP trimer (MD39 HIV Env gp140)”, for which the stoichiometry N stood at 3.
